Source: US20060099150A1

Experiments:
[1] = target: pIgR Domain 6 GST (D6-GST) fusion protein, species not stated (Schistosoma japonica) [GST: P08515]; test: SPR BIAcore, 1:1 Langmuir global fit 62.5-1000 nM; ligand not named
[2] = target: pIgR expressed on transfected MDCK cells; test: cell-based or functional assay

Chain of pIgR Domain 6 GST (D6-GST) fusion protein, species not stated (Schistosoma japonica) [GST: P08515] (P08515 whole entry, the tested form may be a part): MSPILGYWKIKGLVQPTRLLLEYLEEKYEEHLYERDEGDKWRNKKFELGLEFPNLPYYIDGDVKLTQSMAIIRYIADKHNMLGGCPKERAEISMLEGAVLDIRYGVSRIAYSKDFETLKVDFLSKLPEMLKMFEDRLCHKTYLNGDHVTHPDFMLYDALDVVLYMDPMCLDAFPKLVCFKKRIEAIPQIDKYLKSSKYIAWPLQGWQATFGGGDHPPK

Ka [1]: 4.47e+06 M⁻¹ | Kd [1]: 224 nM | koff [1]: 0.00464 s⁻¹ | kon [1]: 27100 M⁻¹ s⁻¹ | transcytosis on pIgR expressing MDCK cells overnight [2]: 2%
B1: sFv5AF (scFv)
scFv: DYKAKQVQLVQSGGGVVQPGRSLRLSCAASGFTFSSYAMHWVRQAPGKGLEWVSAISGSGGSTYYADSVKGRFTISRDNAKNSLYLQMNSLRAEDTAVYYCARDTRGYFDLWGRGTLVTVSSGGGGSGGGGSGGGGSSELTQDPAMSVALGQTVRITCQGDSLRKYHASWYQQRPRQAPRLVVYGKNERPSGIPERFSGSTSGDTASLTISGLQAEDEADYYCHSRDSNADLVVFGGGTKVTVLGAAAEQKLISEEDLNGAAHHHHHH
